According to patent publication US20060287229A1, “Novel CD40 variants” (priority 2004, published 2006):
Entries after “also recorded” stand apart in the source; their conditions may differ.

Key:
[1] = test system: K562 cells; test: RT-PCR of CD40 splice forms in K562 cells treated with etoposide; type: cell-based; settings: 20 μM Etoposide, various time intervals
Experimental: Samples of RT reactions of K562 treated with etoposide were prepared and used for PCR using CD40 primers (35 cycles). Etoposide (Sigma) is known as double-stranded DNA breakage and apoptosis inducing agent. The RT reactions were checked before the analysis to exclude possible genomic contamination and to ensure similar cDNA concentrations in the different samples, using quantitation with GAPDH (not shown).

[2] = test system: K562 cells; test: Caspase activation in K562 cells (immunoblot with anti cleaved PARP antibody); type: cell-based; settings: 25 μM etoposide, 17 hrs
Experimental: For this purpose K562 cells were treated with 25 μM etoposide for 17 hrs, and the activation of caspases, one of the hallmarks of apoptosis, was measured. To measure caspase activation, the cells were lysed, immunoblotted and PARP, a known substrate for caspase-3, was probed using anti cleaved PARP antibody (Cell Signaling, Beverly, Mass.).

[3] = biological target: T1, human CD154 (Homo sapiens, UniProt P29965); test: FACS analysis of sCD40 binding to mouse fibroblasts expressing human CD154; settings: Fc tagged proteins, 1-50 μg/ml, 4° C., 60 min; mouse fibroblasts stably transfected with full length human CD154
T1 construct: stably transfected with full length human CD154; expressed in transfected cells; host or cells: mouse fibroblasts, stably transfected
T1 sequence (P29965 1-261): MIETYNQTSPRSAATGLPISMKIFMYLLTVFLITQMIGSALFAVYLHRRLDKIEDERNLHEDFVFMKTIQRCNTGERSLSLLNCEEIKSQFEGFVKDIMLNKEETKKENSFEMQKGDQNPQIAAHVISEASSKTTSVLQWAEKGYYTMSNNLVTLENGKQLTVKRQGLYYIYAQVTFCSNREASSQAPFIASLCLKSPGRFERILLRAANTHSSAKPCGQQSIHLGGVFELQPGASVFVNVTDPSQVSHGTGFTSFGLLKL
Experimental: 10^6 mouse fibroblasts (stably transfected with full length human CD154) were incubated with either the known CD40 soluble variant, sCD40 WT (panel C, FIG. 17), the variant CD40-skipping 6 (panel A, FIG. 17) or the variant CD40-skipping 5 (panel B, FIG. 17). All CD40 variants were Fc tagged, and present at a concentration of 1-50 μg/ml at 4° C. for 60 min in total volume of 100 μl (0.5×10^6 cells). […] Analysis was performed using BD FACsCalibur. Panel E in FIG. 17 summarizes the mean fluorescence shift, as plotted versus various concentrations of CD40 protein.
Briefly, the FACS protocol was performed as follows. Mouse fibroblasts were trypsinized, and washed twice in PBS; cells were centrifuged at 1500 rpm for 10 min between washes. Next, the cells were re-suspended in FACS buffer (0.2% BSA and 0.02% sodium azide diluted 1/10 in PBS) to give 5-10×10^6 cells mL. Cells were placed in FACS test-tubes at a volume of 100 or 200 microliters per tube. […]
Next, 2 μL (1:50) anti CD40 non-blocking antibody (EA-5 mouse IgG1 PE-conjugated, obtained from Calbiochem) or controls (same isotype PE conjugated) were added to the tubes, and incubated for 30 min at 4° C. […] Next, 0.5 mL PBS was added to tubes, which were read in a FACS machine (BD FACSCalibur). […]
For this experiment, the controls included performing parallel assays with: mouse fibroblasts not expressing hCD154; non-relevant Fc (EA5, which is a mouse anti-CD40 antibody, see Malmborg Hager et al., Scandinavian J. 1 mm. 57:517-524 (2003) or non-Fc tagged proteins or purification mock; known CD40 soluble protein; secondary Ab only and isotype control only (isotype refers to an antibody control, featuring the same type of antibody but one which is not able to bind CD40). The axes are as follows: Y=cell counts; X=log scale of fluorescence intensity. M=A marker placed above the peak of positively stained cells on the histogram plot which provide the statistics of the stained population.

[4] = test system: RANTES secretion via the CD40-CD154 pathway; test: RANTES cell assay (HPMC cells overlaid with mouse fibroblasts/CD154-mouse fibroblasts, ELISA RANTES test); type: cell-based, human; settings: for dose response of inhibition of RANTES secretion (in words): FIG. 18G: CD154 ligand present, high cell number 10,000; for level of cytokine RANTES secretion (summary statement): human peritoneal cells plus mouse fibroblasts expressing CD154 ligand
Experimental: Skipping 5 protein was administered to a mixture of human peritoneal cells (HPMC cells), which express the CD40 receptor on their membrane, and mouse fibroblasts transfected to express the CD154 ligand. The ability of the soluble skipping 5 protein to compete with the CD40 membrane-bound receptor for binding to the CD154 ligand presented on the mouse fibroblasts was thus tested. This ability was measured by determining the resultant level of the cytokine RANTES, which is a cytokine indicative of T cell activation, as compared to when a positive control of interferon (which raises the level of RANTES via a CD40-related pathway) was administered alone.
HPMC cells were grown in M199+10% FCS (Biological Industries, Bet Ha'emek, Israel), trypsinized (using trypsine from Biological Industries, Bet Ha'emek, Israel, 5 ml/75 cm^2 cell culture flask), and recultured into 96-well plates. Cell should reach at least 80% confluence before further use.
Mouse fibroblasts/CD154-mouse fibroblasts were grown in DMEM+10% FCS (Biological Industries). Cells were trypsinized, pelleted (5 min 500 at rpm), counted (½ vol cells+½ vol trypan blue) and resuspended in M199+10% FCS. Cells were then diluted (10,000 or 5000 cells per ml).
CD40 proteins/antibodies were prepared in various concentrations in PBS according to the desired dose response/treatment (volume of 1 reaction should not exceed 20 microliters), followed by adding the same volume of PBS to the negative and positive controls.
The CD40 protein was added to 100 microliters of mouse fibroblasts or CD154-mouse fibroblasts in eppendorf tubes (final volume dependant on duplicates/triplicates) and incubated at R.T for 1 h at 200 rpm (rotation during incubation)
During this incubation time the HPMC were prepared, by removing medium and washing cells twice, and adding 100 microliters of fresh M199+10% FCS with or without 100 U/ml IFN (PeproTech, 50U/μl).
The CD40 L cells mixtures were overlaid on the HPMC (110 ul/well) and incubated O.N (at 37° C., 5% CO2).
100 microliters were removed from supernatant and placed into new 96 well plates, followed by diluting the samples 1/10 in M199+10% FCS and using diluted samples for the ELISA RANTES test.
The cells in the experiment plate were checked for viability.

[5] = FIG. 18C: HPMC cells plus mouse fibroblasts expressing CD154, with interferon
[6] = FIG. 18E: fixed concentration 200 nM sCD40 protein, varying number of CD154+ mouse fibroblasts
[7] = FIGS. 18A-C, complete system with INF and CD154 mouse fibroblasts

Molecule: COc1cc([C@@H]2c3cc4c(cc3[C@@H](O[C@@H]3O[C@@H]5CO[C@@H](C)O[C@H]5[C@H](O)[C@H]3O)[C@H]3COC(=O)[C@H]23)OCO4)cc(OC)c1O [Etoposide]
- expression levels of secreted CD40 splice variant skipping exon 5 (RT-PCR) [1]: increase
- known wild type CD40 expression levels (RT-PCR) [1]: decrease
- cleaved PARP (caspase activation) [2]: appearance of a band in the expected size

Molecule: WT-sCD40-Fc: known CD40 extracellular domain (soluble, truncated) fused to Fc of IgG1 [reference compound]
- sCD40 binding to membrane CD154 (FACS) [3]: significant binding
- Rantes level [4, 5]: approximately 1000 pg/ml
- inhibition of Rantes level [4, 5]: 50%
- inhibition of RANTES secretion [4, 6]: 40-100%
- dose response of inhibition of RANTES secretion (in words) [4]: inhibitory effect
- effect on RANTES secretion (in words) [4, 7]: inhibitory properties

Molecule: known truncation product derived from known CD40: known CD40 extracellular domain without transmembrane domain, a simple truncation product of known CD40 [reference compound]
- level of cytokine RANTES secretion (summary statement) [4]: decreased level

B1: Skipping 5-sCD40-Fc: CD40 skipping exon 5 splice variant fused downstream to the Fc chain of Immunoglobulin IgG1, expressed in baculovirus (protein)
chain: EPPTACREKQYLINSQCCSLCQPGQKLVSDCTEFTETECLPCGESEFLDTWNRETHCHQHKYCDPNLGLRVQQKGTSETDTICTCEEGWHCTSEACESCVLHRSCSPGFGVKQIAVRPKTWLCNRQAQTRLMLSVVPRIG
modifications: left off: a dimerising Fc or GST
notes: CD40 skipping exon 5 splice variant fused downstream to the Fc chain of Immunoglobulin IgG1, expressed in baculovirus
- sCD40 binding to membrane CD154 (FACS) [3]: different properties
- effect on RANTES secretion (in words) [4, 6]: stimulatory effect
- effect on RANTES level in the absence of CD154 (in words) ([4]; FIGS. 18A and B: HPMC cells only or with untransfected mouse fibroblasts, Interferon dependent): agonistic effect; also recorded: agonistic properties
- effect on RANTES secretion (in words) [4, 7]: no inhibition

B2: Skip5: soluble CD40 splice variant lacking exon 5, SEQ ID NO:1, unique tail amino acids 136-160 (protein, listed as Homo sapiens)
chain: MVRLPLQCVLWGCLLTAVHPEPPTACREKQYLINSQCCSLCQPGQKLVSDCTEFTETECLPCGESEFLDTWNRETHCHQHKYCDPNLGLRVQQKGTSETDTICTCEEGWHCTSEACESCVLHRSCSPGFGVKQIAVRPKTWLCNRQAQTRLMLSVVPRIG
- dose response of inhibition of RANTES secretion (in words) [4]: did not cause any inhibition
- level of cytokine RANTES secretion (summary statement) ([4]; listed as CD40 skipping exon 5 variant): increased level
- level of cytokine RANTES secretion (summary statement) ([4]; listed as skipping 5): raise the level of secretion

B3: Skipping 6-sCD40-Fc: Fc-tagged CD40 skipping exon 6 variant (protein)
chain: EPPTACREKQYLINSQCCSLCQPGQKLVSDCTEFTETECLPCGESEFLDTWNRETHCHQHKYCDPNLGLRVQQKGTSETDTICTCEEGWHCTSEACESCVLHRSCSPGFGVKQIATGVSDTICEPCPVGFFSNVSSAFEKCHPWTRSPGSAESPGGDPHHLRDPVCHPLGAGLYQKGGQEANQ
modifications: left off: a dimerising Fc or GST
notes: Fc-tagged CD40 skipping exon 6 variant
- sCD40 binding to membrane CD154 (FACS) [3]: significant binding
- dose response of inhibition of RANTES secretion (in words) [4]: inhibitory effect
